Test results published in patent US20150299268A1.

Biological target: panel of 118 tier 2,3 viruses
Experiment: cell-based or functional assay

B1: N60-B1.1 (antibody, V domains shown)
VH: QLQLQESGPGLVKPSGTLSLTCSVSGGSMNGRNIYWAWIRQTPGKGLEWIGSVDVSDEDAGRTFYKWPIKSRASISADTSKNQFSLKLSSVTVADTGVYYCARETLYYVGNGYYYPLDVFYYNYYMDVWGKGTTVSVSSASTKG
VL: not shown
Q: B1 was tested. Which % of neutralized viruses did it give?
A: 40.2%

Q: And the Median IC50 (ug/ml), neutralization?
A: 0.37 µg/mL

Q: And the average IC50, neutralization (TZM-bl assay)?
A: 0.44 µg/mL
